Assay results published in patent publication US20120232127A1, “REGULATION OF NEUROTRANSMITTER RELEASE THROUGH ANION CHANNELS” (KOREA INSTITUTE OF SCIENCE AND TECHNOLOGY, priority 2008, published 2012).

Columns and labels:
[1] = tested on: intracellular Ca2+ in cultured astrocytes; assay: Ca2+ imaging of TFLLR-induced [Ca2+]i transient in cultured astrocytes; assay type: cell-based, mouse; settings: shRNA expressing astrocytes, sniffer patch, TFLLR
Description: The External solution was comprised of (in mM) 150 NaCl, 10 HEPES, 3 KCl, 2 CaCl2, 2 MgCl2, 5.5 glucose, at pH 7.3 (˜320 mOsm). For voltage clamp recordings, the internal solution contained 25 μg/ml gramicidin D and (in mM) 75 Cs2SO4, 10 NaCl, 0.1 CaCl2, and 10 HEPES, at pH 7.1 (˜310 mOsm). For current clamp recordings, the internal solution contained 25 μg/ml gramicidin D and (in mM) 75 K2SO4, 10 KCl, 0.1 CaCl2, and 10 HEPES, at pH 7.1 (˜310 mOsm). Pipette resistances ranged from 5 to 8 MΩ. For perforated patch clamp, it took 20 to 30 min to achieve acceptable perforation, with final series resistances ranging from 15 to 40 MΩ.
To test if activation of PAR1 by its specific agonist (e.g., TFLLR) causes any change in membrane conductance that might contribute to glutamate release from astrocytes, the whole cell currents and intracellular Ca^2+ responses in cultured astrocytes under gramicidin-D perforated patch configuration were simultaneously recorded (FIG. 1a). This technique minimized dialysis of intracellular ions.

[2] = target: T1, mBest1 (Mus musculus, UniProt O88870); assay: CAAC current in astrocytes expressing shRNA; assay type: cell-based; design: endogenous in cells; host or cells: cultured mouse cortical astrocytes
T1 sequence (O88870 1-551): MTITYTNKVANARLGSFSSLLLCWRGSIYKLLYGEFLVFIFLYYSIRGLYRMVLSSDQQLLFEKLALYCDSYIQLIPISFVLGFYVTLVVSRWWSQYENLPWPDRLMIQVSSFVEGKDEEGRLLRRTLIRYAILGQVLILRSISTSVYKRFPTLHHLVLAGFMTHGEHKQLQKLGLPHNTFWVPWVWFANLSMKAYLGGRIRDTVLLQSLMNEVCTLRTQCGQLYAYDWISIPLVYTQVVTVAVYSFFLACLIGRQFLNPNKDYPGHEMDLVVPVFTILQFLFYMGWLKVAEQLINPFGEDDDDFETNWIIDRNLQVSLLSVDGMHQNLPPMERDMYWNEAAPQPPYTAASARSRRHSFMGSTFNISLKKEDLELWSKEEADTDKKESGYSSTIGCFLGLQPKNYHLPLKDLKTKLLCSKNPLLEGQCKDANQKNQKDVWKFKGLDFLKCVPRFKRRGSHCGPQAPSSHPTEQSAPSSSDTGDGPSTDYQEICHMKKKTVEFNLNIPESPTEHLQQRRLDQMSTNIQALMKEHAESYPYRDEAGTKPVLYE
Description: For plasmid-based shRNA expression, the following complementary oligonucleotides were annealed and inserted into the HindIII/BglII sites of pSUPER-GFP vector (Oligo Engine):
The efficacy of the construct to interfere with mBest1 expression was tested against heterologously expressed mBest1 in HEK293T cells (ATCC) by measuring specific CAAC currents. For lentivirus-based shRNA expression, lentiviral vector containing mBest1 gene was constructed by inserting synthetic double-strand oligonucleotides 5′-[…] […]-3′ (SEQ ID NO: 30) into pstI-XbaI restriction enzyme sites of shLenti2.4 CMV lentiviral vector (Macrogen) and verified by sequencing. Scrambled oligonucleotides inserted shLenti construct (Macrogen) was used as control. […]
(§1) Patch pipettes which have 3-6MΩ of resistance are filled with the standard intracellular solution. […] The concentration of free [Ca^2+]i in the solution was determined (Kuruma, A. & Hartzell, H. C. Bimodal control of a Ca(^2+)-activated Cl(−) channel by difference Ca(^2+) signals. J Gen Physiol 115, 59-80 (2000), which is hereby incorporated by reference for all purposes as if fully set forth herein). […]

[3] = target: T1, mBest1; assay: Whole cell patch clamp of mBest1-expressing HEK293T cells; assay type: cell-based; design: the full-length mBest1 was cloned from both astrocyte and testis cDNAs and transiently expressed in HEK293T cells; expressed in transfected cells; host or cells: HEK293T cells (ATCC); settings: HEK293T cells transfected with mBest1 cDNA
Description: In order to express mBest1 in mammalian cells, an mBest1 full-length fragment from pGEM-T easy plasmid (6.65 kb, Promega) was subcloned into pcDNA 3.1 (Invitrogen) by HindIII site and NotI site. The plasmid constructs were transfected into HEK293T cells (ATCC) using Effectene transfection reagent (Qiagen). To carry out whole cell patch clamp recordings, 1.5˜2 μg of plasmid, which was obtained by cloning mBest1 in cDNA extracted from mouse brain or cultured astrocytes, and then, subcloning into pcDNA3.1 plasmid (Invitrogen), plus pEGFP-N1 (Clontech) were used to transfect one 35 mm culture dish. One day after transfection, cells were replated onto glass coverslips for electrophysiological recording. Transfected cells were identified by EGFP fluorescence and used for patch clamp experiments within 24-36 hrs.
as §1, with “solution. Current voltage curves were established by applying 100- or 200-ms-duration voltage ramps from −100 to +100 mV. The ramp duration was 10 s.” for “solution.”

B1: mBest1 shRNA: mBest1-specific short hairpin RNA, SEQ ID NO: 3 and 4 (lentiviral: SEQ ID NO: 30), nucleotides 563-582 of mBest1 (nucleic acid)
chain 1: GATCCCCTTGCCAACTTGTCAATGAATTCAAGAGATTCATTGACAAGTTGGCAATTTTTA
chain 2: GGGAACGGTTGAACAGTTACTTAAGTTCTCTAAGTAACTGTTCAACCGTTAAAAATTCGA
increase in astrocytic intracellular Ca2+ [1]: unaffected
CAAC current in astrocyte [2]: 49.7±8.3 pA
knock-down of mBest1 channel [3]: specific and efficient knock-down
